The test addresses HER2 ectodomain-Fc (96 kDa) (human, UniProt P04626 23-652). The test can be described thus: SPR. (Surface plasmon resonance follows binding to a sensor surface in real time, without labels.)

Broadly, the Kd is the free concentration of one partner at which half of the binding sites on the other are occupied at equilibrium, for simple one-to-one binding. Read a high Kd as lower affinity.

B1: A10C (A10 CDRs grafted into the C8WT scaffold) (VHH)
VHH: DVQLQASGGGLAQPGGSLRLSCAASCDRMYWVRQAPGKGLEWVSSCDRYYADSVKGRFTISRDNAKNTLYLQMNSLKLEDTALYFCACDRGQGTQVTVSS
In the case of B1, the dissociation constant Kd amounted to 0.0405 µM.

B2: VHH A10 (anti-HER2 nanobody) (VHH)
VHH: DVQLQASGGGFVQPGGSLRLSCAASGATSNISNMGWFRQAPGKEREFVSAISRAESRPLYYADSVKGRFTISRDNSKNTVYLQMNSLRAEDTATYYCAYMPLVRHKAYWGQGTQVTVSS
In turn, B2 registered a Kd of 0.0081 µM.

Values taken from article PMC7911018 (2021).
